We go through 2 molecules from US20140271675A1 (Eli Lilly, published 2014).

Assay [1] concerns the target T1, mouse VEGFR1 (Mouse, UniProt P35969 23-759, limits assumed).
T1 construct: also called VEGFR1 Mouse
T1 sequence (looked up): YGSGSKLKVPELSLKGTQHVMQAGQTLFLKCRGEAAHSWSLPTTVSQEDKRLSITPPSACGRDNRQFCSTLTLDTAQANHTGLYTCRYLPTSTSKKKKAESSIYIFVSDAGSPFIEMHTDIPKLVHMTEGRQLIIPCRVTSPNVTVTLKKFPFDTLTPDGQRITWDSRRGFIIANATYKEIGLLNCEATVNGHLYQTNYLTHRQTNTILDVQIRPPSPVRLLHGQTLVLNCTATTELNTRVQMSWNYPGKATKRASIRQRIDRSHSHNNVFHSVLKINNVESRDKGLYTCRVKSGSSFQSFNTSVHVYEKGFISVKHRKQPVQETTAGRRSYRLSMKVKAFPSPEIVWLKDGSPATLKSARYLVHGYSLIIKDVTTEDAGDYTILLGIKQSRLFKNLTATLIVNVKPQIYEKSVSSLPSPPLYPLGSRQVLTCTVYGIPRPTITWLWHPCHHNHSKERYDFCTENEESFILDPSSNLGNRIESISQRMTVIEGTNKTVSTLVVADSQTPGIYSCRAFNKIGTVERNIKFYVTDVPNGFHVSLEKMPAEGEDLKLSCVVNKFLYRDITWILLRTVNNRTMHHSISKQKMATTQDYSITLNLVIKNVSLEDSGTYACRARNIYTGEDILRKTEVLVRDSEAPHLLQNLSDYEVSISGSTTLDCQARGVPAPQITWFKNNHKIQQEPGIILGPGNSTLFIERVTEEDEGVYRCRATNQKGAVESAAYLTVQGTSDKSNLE
Kind of assay: SPR (Biacore), 25 C, n=1.

Assay [2] has as its target T1, mouse VEGFR1. Kind of assay: SPR (Biacore), 25 C, n=4. Background: Surface plasmon resonance follows binding to a sensor surface in real time, without labels.
Assay [3] addresses T2, human VEGFR1 (SPR analyte/ligand) (human, UniProt P17948 27-758, limits assumed).
T2 construct: also called VEGFR1 Human; Flt-1
In words: SPR (Biacore), 25 C.

Assay [4] addresses T3, mouse VEGFR2 (Mouse, UniProt P35918 20-762, limits assumed).
T3 construct: also called VEGFR2 Mouse
Kind of assay: SPR (Biacore), 25 C.

Assay [5] deals with T4, mouse VEGFR3 (Mouse, UniProt P35917 25-775, limits assumed).
T4 construct: also called VEGFR3 Mouse
T4 sequence (looked up): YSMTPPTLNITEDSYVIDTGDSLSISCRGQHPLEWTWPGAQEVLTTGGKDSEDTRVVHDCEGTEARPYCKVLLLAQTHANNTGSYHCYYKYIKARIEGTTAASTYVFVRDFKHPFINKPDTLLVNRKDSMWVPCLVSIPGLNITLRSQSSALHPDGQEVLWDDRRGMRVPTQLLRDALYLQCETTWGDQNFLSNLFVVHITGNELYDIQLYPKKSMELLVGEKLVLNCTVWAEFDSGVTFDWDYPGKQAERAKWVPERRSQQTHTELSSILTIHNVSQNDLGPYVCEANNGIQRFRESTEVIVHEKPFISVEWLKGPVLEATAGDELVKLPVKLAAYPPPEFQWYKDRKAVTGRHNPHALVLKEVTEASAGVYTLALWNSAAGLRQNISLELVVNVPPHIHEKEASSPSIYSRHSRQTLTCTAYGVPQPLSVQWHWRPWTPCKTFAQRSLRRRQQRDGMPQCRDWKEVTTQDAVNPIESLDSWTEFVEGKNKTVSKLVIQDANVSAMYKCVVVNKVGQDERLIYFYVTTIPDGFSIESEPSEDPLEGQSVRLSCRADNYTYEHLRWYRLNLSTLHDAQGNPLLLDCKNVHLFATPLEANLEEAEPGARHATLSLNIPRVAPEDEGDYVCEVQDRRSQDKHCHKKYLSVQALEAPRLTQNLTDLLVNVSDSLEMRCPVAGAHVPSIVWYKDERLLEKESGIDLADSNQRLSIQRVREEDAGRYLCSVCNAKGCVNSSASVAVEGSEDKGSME
In words: SPR (Biacore), 25 C.

For assay [6], the target named is T5, human VEGFR2 (Human, UniProt P35968 20-764, limits assumed).
T5 construct: also called VEGFR2 Human
T5 sequence (P35968 20-764 limits assumed): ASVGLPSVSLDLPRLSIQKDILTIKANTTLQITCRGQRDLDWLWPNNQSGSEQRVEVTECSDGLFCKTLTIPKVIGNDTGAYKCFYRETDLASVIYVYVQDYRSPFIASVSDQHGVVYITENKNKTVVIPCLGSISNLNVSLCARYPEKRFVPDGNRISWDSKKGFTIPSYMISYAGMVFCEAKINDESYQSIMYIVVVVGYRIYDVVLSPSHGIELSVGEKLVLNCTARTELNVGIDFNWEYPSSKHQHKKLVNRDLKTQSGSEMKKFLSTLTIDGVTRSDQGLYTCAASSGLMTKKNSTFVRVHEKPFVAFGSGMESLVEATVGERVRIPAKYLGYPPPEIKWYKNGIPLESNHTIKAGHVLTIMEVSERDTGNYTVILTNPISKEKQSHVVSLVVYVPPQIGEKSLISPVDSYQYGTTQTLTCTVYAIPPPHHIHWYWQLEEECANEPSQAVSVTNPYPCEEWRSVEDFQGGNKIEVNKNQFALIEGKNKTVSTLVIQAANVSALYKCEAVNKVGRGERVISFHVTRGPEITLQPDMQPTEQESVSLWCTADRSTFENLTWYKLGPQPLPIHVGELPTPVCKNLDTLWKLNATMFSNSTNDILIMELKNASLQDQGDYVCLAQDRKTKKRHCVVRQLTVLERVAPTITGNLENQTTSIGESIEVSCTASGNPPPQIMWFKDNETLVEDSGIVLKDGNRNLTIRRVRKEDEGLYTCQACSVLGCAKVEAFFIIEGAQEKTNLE
Kind of assay: SPR (Biacore), 25 C.

The target in assay [7] is T6, human VEGFR3 (Human, UniProt P35916 25-776, limits assumed).
T6 construct: also called VEGFR3 Human
T6 sequence (looked up): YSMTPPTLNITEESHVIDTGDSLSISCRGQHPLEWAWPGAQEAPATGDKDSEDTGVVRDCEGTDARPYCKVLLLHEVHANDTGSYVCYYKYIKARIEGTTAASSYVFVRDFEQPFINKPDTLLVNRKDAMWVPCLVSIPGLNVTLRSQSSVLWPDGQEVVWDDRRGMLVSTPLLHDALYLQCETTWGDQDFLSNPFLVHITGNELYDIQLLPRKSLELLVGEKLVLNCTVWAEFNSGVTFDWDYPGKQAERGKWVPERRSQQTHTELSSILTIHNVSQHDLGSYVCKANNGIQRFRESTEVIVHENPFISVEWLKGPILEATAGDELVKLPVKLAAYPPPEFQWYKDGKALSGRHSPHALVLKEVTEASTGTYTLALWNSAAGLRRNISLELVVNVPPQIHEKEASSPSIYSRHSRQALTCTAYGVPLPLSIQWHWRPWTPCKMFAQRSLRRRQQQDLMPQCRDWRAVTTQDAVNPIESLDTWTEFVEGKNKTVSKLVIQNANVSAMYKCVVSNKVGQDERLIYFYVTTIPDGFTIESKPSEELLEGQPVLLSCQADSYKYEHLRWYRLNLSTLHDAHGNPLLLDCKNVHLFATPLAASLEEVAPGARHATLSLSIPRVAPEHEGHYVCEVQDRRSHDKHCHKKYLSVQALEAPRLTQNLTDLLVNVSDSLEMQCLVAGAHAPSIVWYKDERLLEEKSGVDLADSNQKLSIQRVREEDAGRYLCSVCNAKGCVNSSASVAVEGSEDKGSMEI
Kind of assay: SPR (Biacore), 25 C.

The term Kd denotes a measure of binding affinity in units of concentration. A higher Kd goes with lower affinity. In general, koff refers to the first-order rate constant of dissociation. Read a high koff as fast dissociation.

T2 sequence (P17948 27-758 limits assumed): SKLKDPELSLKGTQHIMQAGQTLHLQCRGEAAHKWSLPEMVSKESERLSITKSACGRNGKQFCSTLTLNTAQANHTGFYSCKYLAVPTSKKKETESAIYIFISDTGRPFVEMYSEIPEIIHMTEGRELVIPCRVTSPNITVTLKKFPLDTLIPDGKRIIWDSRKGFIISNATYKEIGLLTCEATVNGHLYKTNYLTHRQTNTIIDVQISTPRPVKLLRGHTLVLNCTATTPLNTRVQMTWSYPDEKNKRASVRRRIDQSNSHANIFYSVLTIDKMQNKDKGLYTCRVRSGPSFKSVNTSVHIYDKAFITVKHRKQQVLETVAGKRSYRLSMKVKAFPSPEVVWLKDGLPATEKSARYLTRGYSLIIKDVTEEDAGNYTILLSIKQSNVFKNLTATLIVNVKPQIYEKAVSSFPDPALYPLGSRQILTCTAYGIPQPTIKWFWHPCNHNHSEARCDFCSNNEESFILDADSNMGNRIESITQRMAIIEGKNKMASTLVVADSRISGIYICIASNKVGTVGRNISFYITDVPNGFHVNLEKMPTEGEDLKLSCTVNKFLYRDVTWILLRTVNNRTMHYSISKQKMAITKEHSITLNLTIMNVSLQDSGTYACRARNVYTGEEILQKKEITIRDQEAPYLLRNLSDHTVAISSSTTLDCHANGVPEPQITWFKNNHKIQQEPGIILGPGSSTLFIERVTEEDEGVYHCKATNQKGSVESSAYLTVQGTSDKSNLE
T3 sequence (P35918 20-762 limits assumed): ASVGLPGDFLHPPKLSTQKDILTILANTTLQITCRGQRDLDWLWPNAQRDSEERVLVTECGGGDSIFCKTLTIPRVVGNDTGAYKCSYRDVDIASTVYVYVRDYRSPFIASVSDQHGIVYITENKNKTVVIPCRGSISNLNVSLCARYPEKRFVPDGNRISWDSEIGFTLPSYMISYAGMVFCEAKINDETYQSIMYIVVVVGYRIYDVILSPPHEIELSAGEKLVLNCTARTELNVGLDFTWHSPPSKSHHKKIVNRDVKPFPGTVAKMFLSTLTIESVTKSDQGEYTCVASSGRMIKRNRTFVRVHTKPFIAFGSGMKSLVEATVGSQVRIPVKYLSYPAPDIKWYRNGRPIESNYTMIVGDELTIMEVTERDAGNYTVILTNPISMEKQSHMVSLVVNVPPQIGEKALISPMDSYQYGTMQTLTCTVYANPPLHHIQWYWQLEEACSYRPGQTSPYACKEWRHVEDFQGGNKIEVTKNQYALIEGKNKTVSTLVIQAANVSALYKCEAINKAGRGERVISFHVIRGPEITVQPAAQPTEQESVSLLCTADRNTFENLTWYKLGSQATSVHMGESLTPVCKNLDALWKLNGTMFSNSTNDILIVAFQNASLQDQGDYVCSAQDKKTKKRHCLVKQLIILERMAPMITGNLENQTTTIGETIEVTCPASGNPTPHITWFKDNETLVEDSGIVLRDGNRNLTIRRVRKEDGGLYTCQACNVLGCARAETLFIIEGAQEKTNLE

B1: Antibody III (antibody)
heavy: QVQLKESGPGLVRPSETLSLTCTVSGFSLSDYSLSWVRRPSGKGPEWLGRLWFDGDTTYNSAFKSRLTISRDTSKDQVFLKMNSLQTDDTGTYYCTRDDRDFDYWGQGVMVTVSSAETTAPSVYPLAPGTALKSNSMVTLGCLVKGYFPEPVTVTWNSGALSSGVHTFPAVLQSGLYTLTSSVTVPSSTWPSQTVTCNVAHPASSTKVDKKIVPRNCGGDCKPCICTGSEVSSVFIFPPKPKDVLTITLTPKVTCVVVDISQDDPEVHFSWFVDDVEVHTAQTRPPEEQFNSTFRSVSELPILHQDWLNGRTFRCKVTSAAFPSPIEKTISKPEGRTQVPHVYTMSPTKEEMTQNEVSITCMVKGFYPPDIYVEWQMNGQPQENYKNTPPTMDTDGSYFLYSKLNVKKEKWQQGNTFTCSVLHEGLHNHHTEKSLSHSPGK
light: DIVMTQTPVSMSVSLGGQVSISCRSSQSLVNNNGNTYLSWYIQKPSQSPQLLIYKVSNRVSGISDRFSGSGSGTDFTLKINKIEPDDLGVYYCGQNTQYPLTFGSGTKLEIKRADAAPTVSIFPPSTEQLATGGASVVCLMNNFYPRDISVKWKIDGTERRDGVLDSVTDQDSKDSTYSMSSTLSLTKADYESHNLYTCEVVHKTSSSPVVKSFNRNEC
notes: also called Ab III; Antibody 3
Take B1: in assay [1], the Kd was found to be 0.032 nM and the koff stood at 1.87e-05 s⁻¹.

B2: Antibody IV (antibody, mouse IgG1, kappa)
heavy: QVQLKESGPGLVRPSETLSLTCTVSGFSLSDYSLSWVRRPSGKGPEWLGRLWFDGDTTYNSAFKSRLTISRDTSKDQVFLKMNSLQTDDTGTYYCTRDDRDFDYWGQGVMVTVSSAKTTPPSVYPLAPGSAAQTNSMVTLGCLVKGYFPEPVTVTWNSGSLSSGVHTFPAVLQSDLYTLSSSVTVPSSTWPSETVTCNVAHPASSTKVDKKIVPRDCGCKPCICTVPEVSSVFIFPPKPKDVLTITLTPKVTCVVVDISKDDPEVQFSWFVDDVEVHTAQTQPREEQFNSTFRSVSELPIMHQDWLNGKEFKCRVNSAAFPAPIEKTISKTKGRPKAPQVYTIPPPKEQMAKDKVSLTCMITDFFPEDITVEWQWNGQPAENYKNTQPIMDTDGSYFVYSKLNVQKSNWEAGNTFTCSVLHEGLHNHHTEKSLSHSPG
light: DIVMTQTPVSMSVSLGGQVSISCRSSQSLVNNNGNTYLSWYIQKPSQSPQLLIYKVSNRVSGISDRFSGSGSGTDFTLKINKIEPDDLGVYYCGQNTQYPLTFGSGTKLEIKRADAAPTVSIFPPSSEQLTSGGASVVCFLNNFYPKDINVKWKIDGSERQNGVLNSWTDQDSKDSTYSMSSTLTLTKDEYERHNSYTCEATHKTSTSPIVKSFNRNEC
notes: also called Ab IV; Antibody 4
Molecule B2 had a Kd in assay [2] of no more than 0.018 nM. In addition, in assay [2], the koff was less than 1e-05 s⁻¹. The binding result in assay [3], in assay [4], in assay [5], in assay [6] and in assay [7] was “no binding (tested: ~200 nM)” each time.
